Experimental findings from publication PMC7176432, “Single-molecule functional anatomy of endogenous HER2-HER3 heterodimers” (eLife, 2020) are described below.

This data set deals with T1, Nc1ncnc2c1ncn2[C@@H]1O[C@H](COP(=O)(O)OP(=O)(O)OP(=O)(O)O)[C@@H](O)[C@H]1O.
T1 construct: entire endogenous HER2, ligand-free HER2 complexes immunoprecipitated from SKBR3 cells
The experiment in a line: Michaelis-Menten titration of ATP, single-molecule pTyr1196 immunolabeling (KM). The data set is classed as biochemical, Homo sapiens. The note with it: Mg2+.

By Km is commonly meant the substrate concentration at which the rate is half of its maximum.

For the substance HER2 (Homo sapiens), the Michaelis-Menten constant (Km) was 16.46 µM.
